Publication PMC12457681, “Hyperactive PLCG1 induces cell-autonomous and bystander T cell activation and drug resistance” (EMBO Reports, 2025)
Changes are numbered by the printed parent chain. Names may count otherwise. One block for each binder: values may come before it.

Molecular target: His6-ybbR-alpha-SMA, recombinant, assembled into filaments (human, UniProt P62736 1-377)
Assay: co-sedimentation; actin co-pelleting (spin-down) assay: 4 µM α-SMA pre-assembled into filaments (with Rhodamine muscle actin), 0.4 µM PLCG1 and 1 µM myosin in 50 mM HEPES pH 7.4, 150 mM NaCl, 1 mM TCEP, 2 h at room temperature; high-speed centrifugation; supernatant and pellet on SDS-PAGE
Conditions: both partners purified

binding result: binds
B1: Rat PLCG1 (aa 21-1215) WT, recombinant (enzyme, UniProt P10686 21-1215, looked up)
chain: EVLHLCRSLEVGTVMTLFYSKKSQRPERKTFQVKLETRQITWSRGADKIEGSIDIREIKEIRPGKTSRDFDRYQEDPAFRPDQSHCFVILYGMEFRLKTLSLQATSEDEVNMWIKGLTWLMEDTLQAATPLQIERWLRKQFYSVDRNREDRISAKDLKNMLSQVNYRVPNMRFLRERLTDFEQRSGDITYGQFAQLYRSLMYSAQKTMDLPFLETNTLRTGERPELCQVSLSEFQQFLLEYQGELWAVDRLQVQEFMLSFLRDPLREIEEPYFFLDELVTFLFSKENSVWNSQLDAVCPETMNNPLSHYWISSSHNTYLTGDQFSSESSLEAYARCLRMGCRCIELDCWDGPDGMPVIYHGHTLTTKIKFSDVLHTIKEHAFVASEYPVILSIEDHCSIAQQRNMAQHFRKVLGDTLLTKPVDIAADGLPSPNQLKRKILIKHKKLAEGSAYEEVPTSVMYSENDISNSIKNGILYLEDPVNHEWYPHYFVLTSSKIYYSEETSSDQGNEDEEEPKEASGSTELHSSEKWFHGKLGAGRDGRHIAERLLTEYCIETGAPDGSFLVRESETFVGDYTLSFWRNGKVQHCRIHSRQDAGTPKFFLTDNLVFDSLYDLITHYQQVPLRCNEFEMRLSEPVPQTNAHESKEWYHASLTRAQAEHMLMRVPRDGAFLVRKRNEPNSYAISFRAEGKIKHCRVQQEGQTVMLGNSEFDSLVDLISYYEKHPLYRKMKLRYPINEEALEKIGTAEPDYGALYEGRNPGFYVEANPMPTFKCAVKALFDYKAQREDELTFTKSAIIQNVEKQDGGWWRGDYGGKKQLWFPSNYVEEMINPAILEPEREHLDENSPLGDLLRGVLDVPACQIAIRPEGKNNRLFVFSISMPSVAQWSLDVAADSQEELQDWVKKIREVAQTADARLTEGKMMERRKKIALELSELVVYCRPVPFDEEKIGTERACYRDMSSFPETKAEKYVNKAKGKKFLQYNRLQLSRIYPKGQRLDSSNYDPLPMWICGSQLVALNFQTPDKPMQMNQALFMAGGHCGYVLQPSTMRDEAFDPFDKSSLRGLEPCVICIEVLGARHLPKNGRGIVCPFVEIEVAGAEYDSTKQKTEFVVDNGLNPVWPAKPFHFQISNPEFAFLRFVVYEEDMFSDQNFLAQATFPVKGLKTGYRAVPLKNNYSEDLELASLLIKIDIFPAK
notes: Phospholipase C gamma 1, rat, aa 21-1215; PDB 6PBC (cited) is the structure of PLCG1 from that work; also called wild-type PLCG1; PLCG1 WT; source: expressed and purified as previous published protocol (Hajicek et al, 2019)

binding result: binds
B2: Rat PLCG1 (aa 21-1215) D1165H, recombinant (enzyme, UniProt P10686 21-1215, looked up)
chain: B1 chain with D1145H
notes: Phospholipase C gamma 1, rat, aa 21-1215, with the human leukemia/lymphoma-associated mutation D1165H; also called recombinant PLCG1 D1165H protein; source: expressed and purified as previous published protocol (Hajicek et al, 2019)
